Data published in patent US20250388643A1, “GLUCAGON-LIKE PEPTIDE-2 COMPOSITIONS AND METHODS OF MAKING AND USING SAME” (Amunix Pharmaceuticals, Inc., priority 2011, published 2025).

T1: GLP-2 receptor (GLP2 G-protein coupled receptor) on transfected GLP2R cell line (Millipore, Cat #HTS164C) (human, UniProt O95838 1-553)
T1 sequence (looked up): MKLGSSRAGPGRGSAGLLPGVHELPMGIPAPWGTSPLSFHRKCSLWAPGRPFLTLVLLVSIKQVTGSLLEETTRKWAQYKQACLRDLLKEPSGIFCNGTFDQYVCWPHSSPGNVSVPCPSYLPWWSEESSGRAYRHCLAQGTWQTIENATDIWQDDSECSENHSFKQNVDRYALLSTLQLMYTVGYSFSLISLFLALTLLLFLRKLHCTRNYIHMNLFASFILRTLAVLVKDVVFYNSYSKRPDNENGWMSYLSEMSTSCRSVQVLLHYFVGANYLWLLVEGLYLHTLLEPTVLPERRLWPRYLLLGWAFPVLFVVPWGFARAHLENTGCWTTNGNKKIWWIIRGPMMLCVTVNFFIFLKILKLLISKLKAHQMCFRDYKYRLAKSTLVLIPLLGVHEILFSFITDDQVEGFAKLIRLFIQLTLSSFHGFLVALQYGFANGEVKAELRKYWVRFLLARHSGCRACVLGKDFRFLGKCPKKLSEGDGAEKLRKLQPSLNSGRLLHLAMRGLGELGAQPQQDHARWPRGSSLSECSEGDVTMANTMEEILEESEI

B1: GLP2-2G-XTEN_AE864 fusion protein (ligand)
chain: HGDGSFSDEMNTILDNLAARDFINWLIQTKITDGGSPAGSPTSTEEGTSESATPESGPGTSTEPSEGSAPGSPAGSPTSTEEGTSTEPSEGSAPGTSTEPSEGSAPGTSESATPESGPGSEPATSGSETPGSEPATSGSETPGSPAGSPTSTEEGTSESATPESGPGTSTEPSEGSAPGTSTEPSEGSAPGSPAGSPTSTEEGTSTEPSEGSAPGTSTEPSEGSAPGTSESATPESGPGTSTEPSEGSAPGTSESATPESGPGSEPATSGSETPGTSTEPSEGSAPGTSTEPSEGSAPGTSESATPESGPGTSESATPESGPGSPAGSPTSTEEGTSESATPESGPGSEPATSGSETPGTSESATPESGPGTSTEPSEGSAPGTSTEPSEGSAPGTSTEPSEGSAPGTSTEPSEGSAPGTSTEPSEGSAPGTSTEPSEGSAPGSPAGSPTSTEEGTSTEPSEGSAPGTSESATPESGPGSEPATSGSETPGTSESATPESGPGSEPATSGSETPGTSESATPESGPGTSTEPSEGSAPGTSESATPESGPGSPAGSPTSTEEGSPAGSPTSTEEGSPAGSPTSTEEGTSESATPESGPGTSTEPSEGSAPGTSESATPESGPGSEPATSGSETPGTSESATPESGPGSEPATSGSETPGTSESATPESGPGTSTEPSEGSAPGSPAGSPTSTEEGTSESATPESGPGSEPATSGSETPGTSESATPESGPGSPAGSPTSTEEGSPAGSPTSTEEGTSTEPSEGSAPGTSESATPESGPGTSESATPESGPGTSESATPESGPGSEPATSGSETPGSEPATSGSETPGSPAGSPTSTEEGTSTEPSEGSAPGTSTEPSEGSAPGSEPATSGSETPGTSESATPESGPGTSTEPSEGSAPG
B2: Glucagon-Y288: glucagon fused to unstructured polypeptide Y288 (protein)
chain: HSQGTFTSDYSKYLDSRRAQDFVQWLMNTGGEGSGEGSEGEGSEGSGEGEGSEGSGEGEGGSEGSEGEGGSEGSEGEGGSEGSEGEGSGEGSEGEGGSEGSEGEGSGEGSEGEGSEGGSEGEGGSEGSEGEGSGEGSEGEGGEGGSEGEGSEGSGEGEGSGEGSEGEGSEGSGEGEGSGEGSEGEGSEGSGEGEGSEGSGEGEGGSEGSEGEGSEGSGEGEGGEGSGEGEGSGEGSEGEGGGEGSEGEGSGEGGEGEGSEGGSEGEGGSEGGEGEGSEGSGEGEGSEGGSEGEGSEGGSEGEGSEGSGEGEGSEGSGE

Columns and labels:
[1] = target: T1, GLP-2 receptor (GLP2 G-protein coupled …); test: cell-based or functional assay
[2] = Analytical size exclusion chromatography of XTEN fusion proteins with diverse payloads; assay type: physicochemical; conditions: SEC
Description: Size exclusion chromatography analyses were performed on fusion proteins containing various therapeutic proteins and unstructured recombinant proteins of increasing length. […] Chromatogram profiles were monitored using OD214 nm and OD280 nm. Column calibration for all assays were performed using a size exclusion calibration standard from BioRad; the markers include thyroglobulin (670 kDa), bovine gamma-globulin (158 kDa), chicken ovalbumin (44 kDa), equine myoglobuin (17 kDa) and vitamin B12 (1.35 kDa). […] Based on the SEC analyses for all constructs evaluated, the apparent molecular weights, the apparent molecular weight factor (expressed as the ratio of apparent molecular weight to the calculated molecular weight) and the hydrodynamic radius (RH in nm) are shown in Table 23. […] Accordingly, it is expected that fusion proteins comprising growth and XTEN have reduced renal clearance, contributing to increased terminal half-life and improving the therapeutic or biologic effect relative to a corresponding un-fused biologic payload protein.

Molecule	EC50 (calcium flux, FLIPR TETRA, GLP2R cell line) [1] [nM]	potency relative to GLP2-2G (calcium flux, GLP2R cell line) [1] [%]	hydrodynamic radius [2] [nm]
B1	370	~2	–
B2	–	–	≥ 7
